Measurements from US20160244499A1.

Target: C-terminally biotinylated γc ectodomain (human) (UniProt P31785)
Assay: site 2 affinity of free super-4 for γc; method not stated

B1: super-4 (IL-4 RGA), free, not bound to IL-4Rα (ligand)
chain: HKCDITLQEIIKTLNSLTEQKTLCTELTVTDIFAASKNTTEKETFCRAATVLRQFYSHHEKDTRCLGATAQQFHRHKQLIRFLKRLDRNLWGLAGLNSCPVKEANQSTLENFLERLRVIMQSKWFKCGAHHHHHH
  Kd: 300 nM
